Measured values taken from publication PMC5096715, “Mapping the Complement Factor H-Related Protein 1 (CFHR1):C3b/C3d Interactions” (PLoS ONE, 2016).

Target: the molecule itself
Assay: SEC; preparative HiPrep 16/60 Sephacryl S200 column in DPBS pH 7.4

B1: complement factor H-related protein 1 (CFHR1), recombinant wild-type (natural protein, human, UniProt Q03591 19-330, looked up)
chain: EATFCDFPKINHGILYDEEKYKPFSQVPTGEVFYYSCEYNFVSPSKSFWTRITCTEEGWSPTPKCLRLCFFPFVENGHSESSGQTHLEGDTVQIICNTGYRLQNNENNISCVERGWSTPPKCRSTDTSCVNPPTVQNAHILSRQMSKYPSGERVRYECRSPYEMFGDEEVMCLNGNWTEPPQCKDSTGKCGPPPPIDNGDITSFPLSVYAPASSVEYQCQNLYQLEGNKRITCRNGQWSEPPKCLHPCVISREIMENYNIALRWTAKQKLYLRTGESAEFVCKRGYRLSSRSHTLRTTCWDGKLEYPTCAKR
notes: complement factor H-related protein 1, human, CFHR1*A variant, residues 19-330 of Q03591 (the mature protein, 5 SCR modules); no cleavage of the tag is told; Glycosylated; elutes as a mixture of dimers and monomers; also called wild-type CFHR1; CFHR1*A variant; source: Freestyle 293f cells, transiently transfected, secreted, purified (Histrap HP, Sephacryl S200 SEC); not shown: His6, N-terminal, …
- stoichiometry N: 2
